For 1 molecule, pSTAT3 (MFI) in CD4 T cells, pSTAT3 (MFI) in CD8 T cells and pSTAT3 (MFI) in monocytes results are on record in patent publication US20250163162A1.

The assay addresses T1, IL10Rα and IL2Rγ on human primary cells (CD8 T cells, CD4 T cells, monocytes) (human) (UniProt Q13651).
T1 sequence (looked up) 1: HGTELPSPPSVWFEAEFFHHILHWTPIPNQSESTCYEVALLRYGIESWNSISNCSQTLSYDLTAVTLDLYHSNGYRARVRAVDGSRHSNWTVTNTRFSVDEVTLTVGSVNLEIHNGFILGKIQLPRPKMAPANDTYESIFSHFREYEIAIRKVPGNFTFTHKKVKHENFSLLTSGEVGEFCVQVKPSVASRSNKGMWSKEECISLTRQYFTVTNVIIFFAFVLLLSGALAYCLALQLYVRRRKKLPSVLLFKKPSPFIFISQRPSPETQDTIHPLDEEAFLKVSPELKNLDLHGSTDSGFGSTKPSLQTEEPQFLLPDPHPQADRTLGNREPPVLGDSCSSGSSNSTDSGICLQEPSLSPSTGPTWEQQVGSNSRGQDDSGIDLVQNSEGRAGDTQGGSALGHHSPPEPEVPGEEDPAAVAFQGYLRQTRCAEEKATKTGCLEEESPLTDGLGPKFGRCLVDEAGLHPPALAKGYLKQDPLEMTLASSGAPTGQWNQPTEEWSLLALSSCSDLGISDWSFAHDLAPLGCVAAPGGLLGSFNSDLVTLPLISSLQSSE
T1 sequence (looked up) 2: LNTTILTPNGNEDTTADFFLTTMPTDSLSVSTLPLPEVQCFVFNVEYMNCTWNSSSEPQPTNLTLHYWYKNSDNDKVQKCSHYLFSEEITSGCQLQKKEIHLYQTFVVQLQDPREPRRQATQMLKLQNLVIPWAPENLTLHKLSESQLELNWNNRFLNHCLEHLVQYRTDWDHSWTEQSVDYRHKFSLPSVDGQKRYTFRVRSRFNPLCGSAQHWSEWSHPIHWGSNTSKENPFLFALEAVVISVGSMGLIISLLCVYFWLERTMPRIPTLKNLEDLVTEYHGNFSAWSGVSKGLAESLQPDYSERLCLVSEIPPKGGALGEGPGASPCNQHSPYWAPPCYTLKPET
Put plainly: cell-based or functional assay.

B1: hIL10Ra_VHH14-hIL2Rg_VHH19, linker …, tag his (bispecific antibody, not shown: small tags and cut ends)
chain: QVQLQESGGGSVQAGGSLRLSCGASGYTYSSYCMGWFRQVPGKEREGVAVIDSDGSTSYADSVKGRFTISKDNGKNTLYLQMNSLKPEDTAMYYCAADLGHYRPPCGVLYLGMDYWGKGTQVTVSSGGSGGSGGSGQVQLQESGGGSVQAGGSLRLSCTASGFTFDDREMNWYRQAPGNECELVSTISSDGSTYYADSVKGRFTISQDNAKNTVYLQMDSVKPEDTAVYYCAADFMIAIQAPGAGCWGQGTQVTVSS
B1 yielded a pSTAT3 (MFI) in CD4 T cells at 0.0001 µM of 12800 MFI, a pSTAT3 (MFI) in CD4 T cells at 0.001 µM of 11800 MFI, a pSTAT3 (MFI) in CD4 T cells at 0.01 µM of 11100 MFI and a pSTAT3 (MFI) in CD4 T cells at 0.1 µM of 10200 MFI. Moreover, the pSTAT3 (MFI) in CD4 T cells at 1 µM amounted to 9970 MFI, the pSTAT3 (MFI) in CD4 T cells at 10 µM was determined as 11400 MFI, the pSTAT3 (MFI) in CD4 T cells at 100 µM turned out to be 10300 MFI and the pSTAT3 (MFI) in CD8 T cells at 0.0001 µM amounted to 7840 MFI. This molecule had a pSTAT3 (MFI) in CD8 T cells at 0.001 µM of 7520 MFI, a pSTAT3 (MFI) in CD8 T cells at 0.01 µM of 6920 MFI, a pSTAT3 (MFI) in CD8 T cells at 0.1 µM of 6780 MFI and a pSTAT3 (MFI) in CD8 T cells at 1 µM of 6480 MFI. This molecule showed a pSTAT3 (MFI) in CD8 T cells at 10 µM of 7330 MFI, a pSTAT3 (MFI) in CD8 T cells at 100 µM of 6930 MFI, a pSTAT3 (MFI) in monocytes at 0.0001 µM of 4230 MFI and a pSTAT3 (MFI) in monocytes at 0.001 µM of 4710 MFI. Further, the pSTAT3 (MFI) in monocytes at 0.01 µM was 4700 MFI, the pSTAT3 (MFI) in monocytes at 0.1 µM came out at 4690 MFI, the pSTAT3 (MFI) in monocytes at 1 µM stood at 4620 MFI and the pSTAT3 (MFI) in monocytes at 10 µM was 4550 MFI. Also, the pSTAT3 (MFI) in monocytes at 100 µM amounted to 4860 MFI.
